Results: article PMC10441969, “Small protein Cgl2215 enhances phenolic tolerance by promoting MytA activity in Corynebacterium glutamicum” (Stress Biology, 2022)

Molecular target: T1, His6-MytA (C. glutamicum, UniProt P0C1D6 44-657)
T1 sequence (looked up): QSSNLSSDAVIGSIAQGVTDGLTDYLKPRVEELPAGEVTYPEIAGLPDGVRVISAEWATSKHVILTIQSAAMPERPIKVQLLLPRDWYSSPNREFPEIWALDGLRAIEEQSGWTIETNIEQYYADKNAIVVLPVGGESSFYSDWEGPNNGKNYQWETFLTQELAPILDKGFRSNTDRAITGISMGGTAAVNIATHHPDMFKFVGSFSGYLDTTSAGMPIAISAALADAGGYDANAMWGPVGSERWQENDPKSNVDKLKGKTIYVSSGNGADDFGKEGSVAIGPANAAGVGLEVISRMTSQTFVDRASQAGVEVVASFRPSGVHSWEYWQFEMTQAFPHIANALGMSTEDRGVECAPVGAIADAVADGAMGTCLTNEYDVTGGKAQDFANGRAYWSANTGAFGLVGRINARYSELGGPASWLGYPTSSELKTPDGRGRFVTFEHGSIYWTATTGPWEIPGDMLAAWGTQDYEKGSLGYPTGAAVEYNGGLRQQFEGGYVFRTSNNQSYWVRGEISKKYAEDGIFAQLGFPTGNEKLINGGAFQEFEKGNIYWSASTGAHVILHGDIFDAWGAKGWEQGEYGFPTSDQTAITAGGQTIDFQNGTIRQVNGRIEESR
Experiment: cell-based or functional assay

in vitro esterase activity of MytA (release of p-NP from p-NPP; MytA 4.7 μM) with GST-Cgl2215 at a 1:1 ratio of GST-Cgl2215:MytA and higher ratios (further increased): 1.6 fold
B1: GST-Cgl2215 (natural protein, C. glutamicum, UniProt Q8NNI6 1-71, looked up)
chain: MNHKLFGSKQFRKEKEMGLRIRPNEMKVWETFTLERQLEVIINADHLLLFRGEPHGTVSLSDVVASELIGI
